Test results: article PMC2928751
Values belong to the substance of their own block, whether it stands above or below them.

How the values were obtained:
[1] = biological target: Gli3 D-site peptide (human); test: peptide or protein array; 17-mer peptides linked by the C-terminus to a nitrocellulose membrane, in duplicate, probed with [35S]-methionine labelled JNK1; PhosphorImager signal normalised to MKK7-D2 = 100%
[2] = biological target: MLL4 D-site peptide (human); test: as above
[3] = biological target: Neil1 D-site peptide (human); test: as above
[4] = biological target: 35S-radiolabeled JNK1, P45983-2; test: peptide array probed with 35S-labeled JNK1, Phosphorimager quantification; settings: read off a plot

binding normalised to the MKK7-D2 positive control [1]: 193 % of MKK7-D2 | binding normalised to the MKK7-D2 positive control [2]: 161 % of MKK7-D2 | binding normalised to the MKK7-D2 positive control [3]: 198 % of MKK7-D2
Substance: 35S-radiolabeled JNK1 (from UniProt P45983-2 1-384) (enzyme)

response (% of MKK7-D2 binding) ([4]; parent: est. 520): 28
Substance: MKK4 D-site peptide (positive control) MKK4 Mut (alanine substitutions at the critical basic and hydrophobic residues; not printed)

percent of parent (% of MKK7-D2 binding) ([4]; parent: est. 100): 12
Substance: MKK7-D2 peptide (positive control) MKK7 Mut (alanine substitutions at the critical basic and hydrophobic residues; not printed)
